Target: T1, ENO1 (bought, ATGen #ATGP0404) (UniProt P06733 1-434)
T1 construct: ENO1 (α-enolase), bought protein, ATGen #ATGP0404; also called α-enolase; source: bought: ATGen (#ATGP0404)
Experiment: SPR; ENO1 immobilised directly on CM5 chip (8171 RU, 10 mM sodium acetate pH 5.0); GRN A 3.5-112.0 μM in HBS-EP (10 mM HEPES, 150 mM NaCl, 3 mM EDTA, 0.05% P20) at 30 μL/min; BIACORE T200; KD = Koff/Kon
Conditions: both partners purified

T1 sequence (P06733 whole entry): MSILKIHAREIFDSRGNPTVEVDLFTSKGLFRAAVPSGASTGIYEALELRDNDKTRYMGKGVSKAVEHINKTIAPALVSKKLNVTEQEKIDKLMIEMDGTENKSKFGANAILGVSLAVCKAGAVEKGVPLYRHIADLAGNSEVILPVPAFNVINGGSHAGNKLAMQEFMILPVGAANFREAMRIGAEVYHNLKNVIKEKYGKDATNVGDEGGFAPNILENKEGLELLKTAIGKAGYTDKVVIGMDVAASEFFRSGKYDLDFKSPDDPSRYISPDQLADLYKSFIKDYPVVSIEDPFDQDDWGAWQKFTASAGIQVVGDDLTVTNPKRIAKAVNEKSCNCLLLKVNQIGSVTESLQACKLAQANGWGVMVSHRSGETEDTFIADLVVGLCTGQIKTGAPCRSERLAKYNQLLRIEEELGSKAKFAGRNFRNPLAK

Kd: 56 µM
B1: Granulin A (His-GRN A) (peptide, UniProt P28799 281-336, looked up)
chain: DVKCDMEVSCPDGYTCCRLQSGAWGCCPFTQAVCCEDHIHCCPAGFTCDTQKGTCE
notes: granulin A (GRN A), a peptide of about 6 kDa with 12 cysteine residues, derived from proteolysis of progranulin (PGRN); The source and limits of the His-tagged GRN A are not described; The SPR methods call the analyte only 'GRN A'

From article PMC5444744, “Interaction between granulin A and enolase 1 attenuates the migration and invasion of human hepatoma cells” (Oncotarget, 2017)
